Measurements from patent US20250277031A1 (BEIJING HANMI PHARMACEUTICAL, published 2025).
Numbering of substitutions follows the chain as printed.

Tests used:
recombinant human CD47 [1] = target: T1, recombinant human CD47 (human, UniProt Q08722 19-139); assay: ELISA, coated recombinant human CD47
T1 construct: also called antigen CD47
Procedure: (§1) ELISA was used to screen the anti-human CD47 antibodies in the hybridoma culture supernatants. A 96-well high-adsorption ELISA plate (Costar, catalog number 42592) was coated with 1 μg/mL of the recombinant human CD47 (Sino Biological Inc.) at 100 μL per well using carbonate buffer solution, pH=9.6 at 4° C. overnight. The plate was washed 5 times with PBST, and then blocked using PBST with 1% BSA, 300 μL/well, and incubated at 25° C. for 1 hour, and then washed 5 times with PBST. The culture supernatant samples and positive serum control were added, 100 μL/well, incubated at 25° C. for 1 hour, and then washed 5 times with PBST. The horseradish peroxidase-labeled anti-mouse IgG antibody (Abcam, catalog number Ab7068) diluted 1:10000 in PBST with 1% BSA was then added, 100 μL per well, and incubated at 25° C. for 1 hour. The plate was washed 5 times with PBST. The colorimetric substrate TMB was added, 100 μL/well, and developed at room temperature for 10 minutes. 1M H₂SO₄ was added, 100 μL/well, to stop the development. The absorbance at 450 nm was read on a microplate reader. Positive clones capable of secreting the anti-human CD47 selection antibodies were selected according to the magnitude of OD₄₅₀ₙₘ.

[2] = target: T2, recombinant human CD47-Fc protein (ACROBiosystems, catalog number CD7-H52A5) (human, UniProt Q08722 19-139); assay: competition ELISA, coated CD47-Fc, competitor biotin-labelled SIRPα 2 nM
T2 construct: bought; not shown: Fc part of a bought fusion protein, not described
T2 sequence (Q08722 19-139 limits assumed): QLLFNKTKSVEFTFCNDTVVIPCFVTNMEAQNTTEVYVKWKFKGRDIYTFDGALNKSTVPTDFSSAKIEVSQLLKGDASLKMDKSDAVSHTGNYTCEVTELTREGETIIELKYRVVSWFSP
Procedure: ELISA was used to determine whether the anti-human CD47 selection antibodies secreted by the positive clones can block the binding of CD47/SIRPα. A 96-well high-adsorption ELISA plate was coated with 1 μg/mL of the recombinant human CD47-Fc (ACROBiosystems) at 100 μL per well using carbonate buffer solution, pH=9.6 at 4° C. overnight. The plate was washed 5 times with PBST, and then blocked using PBST with 1% BSA, 300 μL/well, and incubated at 25° C. for 1 hour, and then washed 5 times with PBST. The anti-human CD47 selection antibody samples were added, 50 μL/well, the biotin-labelled SIRPα (ACROBiosystems) was added at a concentration of 4 nM (a final concentration of 2 nM), 50 μL/well, incubated at 25° C. for 90 minutes, and then washed 5 times with PBST. The Streptavidin-HRP (BD Pharmingen, catalog number 554066) diluted 1:1000 in PBST with 1% BSA was then added, 100 μL per well, and incubated at 25° C. for 1 hour. The plate was washed 5 times with PBST. The colorimetric substrate TMB was added, 100 μL/well, and developed at room temperature for 10 minutes. 1M H₂SO₄ was added, 100 μL/well, to stop the development. The absorbance at 450 nm was read on a microplate reader. The anti-human CD47 selection antibodies capable of inhibiting the binding of the human CD47-Fc/biotin-labelled SIRPα have a neutralizing activity. […]

recombinant human CD47 [3] = target: T1, recombinant human CD47; assay: ELISA, plate coated with recombinant human CD47, OD450
recombinant human CD47 [4] = target: T1, recombinant human CD47; assay: SPR, Biacore X100, antibody captured on Protein A chip, CD47 as analyte
Source text: Biacore X100 instrument (purchased from GE) was used to detect the kinetic constant of the chimeric anti-human CD47 monoclonal antibodies binding to its antigen human CD47. This instrument utilizes optical surface plasmon resonance technology to detect the association and dissociation between the molecules coated on the biochip and the molecules to be tested. The main reagent used is Protein A chip (GE Healthcare, 29-1275-57). The experimental procedure is briefly described as follows: the chimeric anti-human CD47 antibodies were diluted in running buffer (1×HBS-EP+10 mM HEPES, 150 mM NaCl, 3 mM EDTA, 0.05% surfactant P20, pH7.4). During the capture-binding phase, the antibodies at a concentration of 2 μg/mL were injected for 60 seconds at a speed of 10 μL/min. During the binding phase, the antigen CD47 was diluted into multiple concentrations with running buffer, injected for 120 seconds at a speed of 30 μL/min respectively. During the dissociation phase, running buffer was injected for 600 seconds at a speed of 10 μL/min. The regeneration condition is 10 mM glycinate solution, pH1.5. Association kinetic constants and dissociation kinetic constants were analyzed and calculated by Biacore X100 evaluation software. The association kinetic constants, dissociation kinetic constants and dissociation equilibrium constants of the chimeric anti-human CD47 antibodies were shown in Table 7.
As mentioned above, Biacore X100 instrument was used to detect the binding kinetic constant of the humanized anti-human CD47 monoclonal antibodies to its antigen human CD47. The association kinetic constants, dissociation kinetic constants and dissociation equilibrium constants of the humanized anti-human CD47 antibodies were shown in Table 10.

[5] = target: T2, recombinant human CD47-Fc protein …; assay: blocking ELISA: plate coated with human CD47-Fc, biotin-labelled SIRPα as the blocked ligand, falling OD450 curve; the sheet labels the half-maximal value EC50
[6] = target: T3, recombinant human B7-H2 (ACROBiosystems) (human, UniProt O75144 19-258, limits assumed); assay: ELISA, coated recombinant protein
T3 construct: counted here as a B7 family member
T3 sequence (looked up): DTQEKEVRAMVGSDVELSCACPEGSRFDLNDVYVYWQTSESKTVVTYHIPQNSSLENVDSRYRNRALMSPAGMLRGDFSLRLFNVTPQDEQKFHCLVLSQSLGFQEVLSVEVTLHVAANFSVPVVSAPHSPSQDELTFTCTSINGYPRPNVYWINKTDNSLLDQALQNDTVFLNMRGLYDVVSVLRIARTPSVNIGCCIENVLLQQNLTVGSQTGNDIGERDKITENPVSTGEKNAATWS
Procedure: (§2) Binding specificity of the chimeric anti-human CD47 mAbs was determined by ELISA. A 96-well high-adsorption ELISA plate was coated with 1 μg/mL of the recombinant human PD1, CD28, CTLA4, ICOS, BTLA, CD47, PD-L2, CD80, CD86, B7-H2, CD47, SIRPα and SIRPγ (all from ACROBiosystems), at 100 μL per well using carbonate buffer solution, pH=9.6 at 4° C. overnight. The plate was washed 5 times with PBST, and then blocked using PBST with 1% BSA, 300 μL/well, and incubated at 25° C. for 1 hour, and then washed 5 times with PBST. The chimeric anti-human CD47 mAb samples serially diluted in PBST with 1% BSA and the control CC-90002 and the isotype control were added, 100 μL/well, incubated at 25° C. for 1 hour, and then washed 5 times with PBST. The horseradish peroxidase-labeled anti-human IgG antibody (Chemicon, catalog number AP309P) diluted 1:10000 in PBST with 1% BSA was then added, 100 μL per well, and incubated at 25° C. for 1 hour. The plate was washed 5 times with PBST. The colorimetric substrate TMB was added, 100 μL/well, and developed at room temperature for 10 minutes. 1M H₂SO₄ was added, 100 μL/well, to stop the development. The absorbance at 450 nm was read on a microplate reader.

[7] = target: recombinant human SIRPγ (ACROBiosystems) (human, UniProt Q9P1W8 29-360, limits assumed); assay: ELISA, coated recombinant protein
recombinant human SIRPγ (ACROBiosystems), sequence (Q9P1W8 29-360 limits assumed): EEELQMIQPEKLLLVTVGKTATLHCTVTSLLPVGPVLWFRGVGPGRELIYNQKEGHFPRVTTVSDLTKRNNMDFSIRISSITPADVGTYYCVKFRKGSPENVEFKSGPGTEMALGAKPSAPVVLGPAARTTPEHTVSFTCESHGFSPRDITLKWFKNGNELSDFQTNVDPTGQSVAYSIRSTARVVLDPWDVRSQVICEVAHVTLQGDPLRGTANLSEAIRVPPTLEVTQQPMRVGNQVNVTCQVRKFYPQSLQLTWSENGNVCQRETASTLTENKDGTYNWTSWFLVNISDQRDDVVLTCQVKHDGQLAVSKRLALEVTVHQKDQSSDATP
Procedure: as §2

recombinant human CD47 [8] = target: T1, recombinant human CD47; assay: ELISA, plate coated with 1 µg/mL recombinant human CD47, OD450
Procedure: as §1, with “A” for “ELISA was used to screen the anti-human CD47 antibodies in the hybridoma culture supernatants. A”, “plate” for “plate (Costar, catalog number 42592)”, “anti-human CD47 antibody” for “culture supernatant”, “the” for “positive serum”, “control CC-90002 (a patent sequence from WO2016109415)” for “control”, “reader.” for “reader. Positive clones capable of secreting the anti-human CD47 selection antibodies were selected according to the magnitude of OD₄₅₀ₙₘ.”

[9] = target: T2, recombinant human CD47-Fc protein …; assay: blocking ELISA: plate coated with human CD47-Fc, 2 nM biotin-labelled SIRPα as the blocked ligand, falling OD450 curve; the sheet labels the half-maximal value EC50
Procedure: A 96-well high-adsorption ELISA plate was coated with 1 μg/mL of the recombinant human CD47-Fc (ACROBiosystems) at 100 μL per well using carbonate buffer solution, pH=9.6 at 4° C. overnight. The plate was washed 5 times with PBST, and then blocked using PBST with 1% BSA, 300 μL/well, and incubated at 25° C. for 1 hour, and then washed 5 times with PBST. The anti-human CD47 antibody samples were added, 50 μL/well, the biotin-labelled SIRPα (ACROBiosystems) was added at a concentration of 4 nM (a final concentration of 2 nM), 50 μL/well, incubated at 25° C. for 90 minutes, and then washed 5 times with PBST. The Streptavidin-HRP (BD Pharmingen, catalog number 554066) diluted 1:1000 in PBST with 1% BSA was then added, 100 μL per well, and incubated at 25° C. for 1 hour. The plate was washed 5 times with PBST. The colorimetric substrate TMB was added, 100 μL/well, and developed at room temperature for 10 minutes. 1M H₂SO₄ was added, 100 μL/well, to stop the development. The absorbance at 450 nm was read on a microplate reader.

T1 sequence (Q08722 19-139 limits assumed): as the sequence (Q08722 19-139 limits assumed) above

B1: anti-human CD47 murine monoclonal antibody secreted by clone CD47-18-5 (antibody, V domains shown)
VH: EVQLQQSGAELVKPGASVKLSCTASGFNIEDIYMHWVKQRPEQGLEWIGRIDPANDNTKYGPKLQGRATITADTSSNTAYLQLSGLTSEDTGVYYCVRRIPTDIMDYWGPGTSVTVSS
VL: DIVMTQSQKFMSTSVGDRVSITCKASQNVRTSIAWYQQKSGQSPKTLIYLASNRHTGVPDRFTGSGSGTDFTLTISNVQSEDLADYFCLQHWNYPFTFGSGTKLEIK
notes: murine hybridoma antibody
Recombinant human CD47 [1]
  EC50: 0.252 nM
[2]
  IC50: 1.48 nM

B2: anti-human CD47 murine monoclonal antibody secreted by clone CD47-18-10 (antibody, V domains shown)
VH: B1 VH with L64F, I70M, P101T, I104V, P110Q
VL: B1 VL with S40P
notes: murine hybridoma antibody
Recombinant human CD47 [1]
  EC50: 0.273 nM
[2]
  IC50: 2.1 nM

B3: humanized anti-human CD47 monoclonal antibody BH3008b (antibody, human IgG4 S228P, kappa, V domains shown)
VH: QVQLVQSGAEVKKPGSSVKVSCKASGFNIEDIYMHWVRQAPGQGLEWMGRIDPANDNTKYGPKLQGRVTITADTSTNTAYMELSSLRSEDTAVYYCVRRIPTDIMDYWGQGTTVTVSS
VL: DIQMTQSPSSLSASVGDRVTITCKASQNVRTSIAWYQQKPGKAPKTLIYLASNRHTGVPSRFSGSGSGTEFTLTISNLQPEDFATYYCLQHWNYPFTFGQGTKLEIKR
notes: variable regions of Z11; the summary calls the humanized antibody an IgG4; also called Z11
Recombinant human CD47 [3]
  EC50: 0.035 nM
Recombinant human CD47 [4]
  Kd: 1.17 nM
  koff: 0.00117 s⁻¹
  kon: 998000 M⁻¹ s⁻¹
[5]
  IC50: 0.781 nM

B4: humanized anti-human CD47 monoclonal antibody BH3011b (antibody, human IgG4 S228P, kappa, V domains shown)
VH: B3 VH
VL: B3 VL with Y87F
notes: variable regions of Z12; the summary calls the humanized antibody an IgG4; also called Z12; BH301Tb
Recombinant human CD47 [3]
  EC50: 0.029 nM
Recombinant human CD47 [4]
  Kd: 0.833 nM
  koff: 0.000852 s⁻¹
  kon: 1.02e+06 M⁻¹ s⁻¹
[5]
  IC50: 0.741 nM

B5: chimeric anti-human CD47 monoclonal antibody mAb-18-10 N297A (antibody, human IgG1, kappa, N297A)
heavy: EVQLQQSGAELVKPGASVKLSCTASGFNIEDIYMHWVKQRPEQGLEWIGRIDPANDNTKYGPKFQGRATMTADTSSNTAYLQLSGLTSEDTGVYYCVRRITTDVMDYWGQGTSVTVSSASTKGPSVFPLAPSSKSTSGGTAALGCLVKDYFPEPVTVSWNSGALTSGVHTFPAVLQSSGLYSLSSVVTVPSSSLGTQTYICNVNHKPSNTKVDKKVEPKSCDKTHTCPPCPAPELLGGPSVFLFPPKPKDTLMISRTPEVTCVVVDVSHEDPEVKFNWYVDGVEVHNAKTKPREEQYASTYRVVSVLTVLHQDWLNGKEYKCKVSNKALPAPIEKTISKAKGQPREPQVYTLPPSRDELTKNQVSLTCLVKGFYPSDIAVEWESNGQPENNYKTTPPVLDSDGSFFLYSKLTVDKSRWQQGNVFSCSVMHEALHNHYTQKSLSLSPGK
light: DIVMTQSQKFMSTSVGDRVSITCKASQNVRTSIAWYQQKPGQSPKTLIYLASNRHTGVPDRFTGSGSGTDFTLTISNVQSEDLADYFCLQHWNYPFTFGSGTKLEIKRTVAAPSVFIFPPSDEQLKSGTASVVCLLNNFYPREAKVQWKVDNALQSGNSQESVTEQDSKDSTYSLSSTLTLSKADYEKHKVYACEVTHQGLSSPVTKSFNRGEC
notes: no further substitution applied
[6]
  binding result: no binding
[7]
  binding result: no binding
Recombinant human CD47 [8]
  EC50: 0.031 nM
[9]
  IC50: 1.69 nM
